The text below walks through data of US20210355194A1.

For experiment [1], the target named is ACE2 on VERO E6 cells (African green monkey). Nature of the experiment: flow cytometry, VERO E6 cells, positive control. (In general: A flow cytometer gives signals particle by particle.)
For experiment [2], the target named is SARS-CoV-2 antigen of the epitope binning (SARS-CoV-2) (UniProt P0DTC2). Nature of the experiment: epitope binning; competitor 1-16.
The target is the same in experiment [3]. Kind of experiment: epitope binning; competitor 2-6.
For experiment [4] the target is unchanged. Kind of experiment: epitope binning; competitor 1-32.
Experiment [5] shares this target. Nature of the experiment: epitope binning; competitor 2-2.
For experiment [6] the target is unchanged. Kind of experiment: epitope binning; competitor 2-5.
Experiment [7] has the same target. Kind of experiment: epitope binning; competitor 2-11.
Experiment [8] has the same target. Kind of experiment: epitope binning; competitor 1-35.
The target is the same in experiment [9]. Nature of the experiment: epitope binning; competitor Acro mAb.
Experiment [10] shares this target. Kind of experiment: epitope binning; competitor CR3022.
The target is the same in experiment [11]. Kind of experiment: epitope binning; competitor 2-8.

“S1 RBD Fc fusion (from UniProt P0DTC2 319-541)”: in experiment [1], the MFI was 26100 and the MFI/Baseline came to 75.9.

In the case of CR3022 (antibody), the epitope binning score in experiment [2] was 2; in [3], 2; in experiment [4], 1; in [5] it was 0; in experiment [6], 0; in [7] it was 1. The epitope binning score in experiment [8] stood at 2; in experiment [9] it was 2; in [10], 0; in experiment [11] it was 0.
